Molecular target: T1, recombinant human DLL3-Flag (Homo sapiens, UniProt Q9NYJ7)
T1 construct: Based on the apparent size of the DLL3 antigen (where the ECD is approximately 56 kD); Flag; purchased Adipogen International
T1 sequence (Q9NYJ7 27-492 limits assumed): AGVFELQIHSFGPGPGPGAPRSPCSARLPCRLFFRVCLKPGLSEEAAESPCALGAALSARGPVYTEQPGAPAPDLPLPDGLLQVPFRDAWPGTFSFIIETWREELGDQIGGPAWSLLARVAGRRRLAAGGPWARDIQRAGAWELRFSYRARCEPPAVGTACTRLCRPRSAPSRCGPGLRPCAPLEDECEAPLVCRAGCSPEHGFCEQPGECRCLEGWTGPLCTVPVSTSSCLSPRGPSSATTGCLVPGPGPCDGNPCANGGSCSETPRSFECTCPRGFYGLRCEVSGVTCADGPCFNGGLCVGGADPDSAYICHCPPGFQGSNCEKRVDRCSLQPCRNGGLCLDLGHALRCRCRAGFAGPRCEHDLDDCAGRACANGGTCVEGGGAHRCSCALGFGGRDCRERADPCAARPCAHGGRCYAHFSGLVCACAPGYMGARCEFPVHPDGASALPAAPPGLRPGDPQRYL
Test: Antibody binning by competition on ForteBio RED
Assay type: binding
Description: As to antibody binning, a ForteBio RED was used per manufacturer's instructions to identify competing antibodies that bound to the same or different bins. Briefly, a reference antibody (Ab1) was captured onto an anti-mouse capture chip, a high concentration of non-binding antibody was then used to block the chip and a baseline was collected. Monomeric, recombinant human DLL3-Flag (Adipogen International) was then captured by the specific antibody (Ab1) and the tip was dipped into a well with either the same antibody (Ab1) as a control or into a well with a different test antibody (Ab2). […] If no further binding occurred, as determined by comparing binding levels with the control Ab1, then Ab2 was determined to be in the same bin. As known in the art this process can be expanded to screen large libraries of unique antibodies using a full row of antibodies representing unique bins in a 96-well plate. […] Based on the apparent size of the DLL3 antigen (where the ECD is approximately 56 kD) and the resolution of the binning methodology employed, it is believed that the nine identified bins represent the majority of the bins present on the DLL3 extracellular antigen.

B1: SC16.23: murine anti-DLL3 monoclonal antibody, sequences in FIGS. 3A and 3B (antibody, V domains shown)
VL: QIVLTQSPAIMSASPGEKVTLTCSASSSVSSRYLYWYQQKPGSSPKLWIYSTSNLASGVPARFSGSGSGTSYSLIISSMEAEDAASYFCHQWSNYPLTFGAGTKLELK
VH: QVTLKESGPGILQPSQTLSLTCSFSGFSLSTSNTGIGWIRQPSGTGLEWLAHIWWNDDKYYNPSLKSRLTISKETSNNQVFLKITNVDTADTASYFCVQIGRDYSNYAWYFDVWGAGTTVTVSS
bin relation to other antibodies: found not to bin with SC16.34 or SC16.56
